# According to the Immune Epitope Database (IEDB):
# pKd: −log10 of the molar value.
# Tests used:
# HLA-B*07:02 [1] = assay: IEDB peptide-MHC binding, purified MHC/competitive/radioactivity; filed as Kd, often an IC50 or EC50 that approximates it; ≥ and ≤ were set here for values at or beyond the usual limits of such assays
# HLA-B*35:01 = assay: as above
# HLA-B*51:01 = assay: as above
# HLA-B*53:01 = assay: as above
# HLA-B*54:01 = assay: as above
# HLA-B*58:01 [2] = assay: as above
# HLA-B*08:01 [3] = assay: as above
# HLA-A*01:01 [4] = assay: IEDB peptide-MHC binding, purified MHC/direct/fluorescence; filed as Kd, often an IC50 or EC50 that approximates it; ≥ and ≤ were set here for values at or beyond the usual limits of such assays; conditions: source organism: Campylobacter jejuni
# HLA-A*02:01 [5] = assay: as above; conditions: source organism: Campylobacter jejuni RM1221
# HLA-A*03:01 [6] = assay: as above; conditions: source organism: Campylobacter jejuni RM1221
# HLA-A*11:01 [7] = assay: as above; conditions: source organism: Campylobacter jejuni RM1221
# HLA-A*24:03 = assay: as above; conditions: source organism: Campylobacter jejuni RM1221
# HLA-A*26:01 = assay: as above; conditions: source organism: Campylobacter jejuni RM1221
# HLA-A*31:01 [8] = assay: as above; conditions: source organism: Campylobacter jejuni RM1221
# HLA-A*69:01 = assay: as above; conditions: source organism: Campylobacter jejuni RM1221
# HLA-B*07:02 [9] = assay: as above; conditions: source organism: Campylobacter jejuni RM1221
# HLA-B*08:01 [10] = assay: as above; conditions: source organism: Campylobacter jejuni RM1221
# HLA-B*15:01 = assay: as above; conditions: source organism: Campylobacter jejuni RM1221
# HLA-B*27:05 = assay: as above; conditions: source organism: Campylobacter jejuni RM1221
# HLA-B*40:01 = assay: as above; conditions: source organism: Campylobacter jejuni RM1221
# HLA-B*44:02 = assay: as above; conditions: source organism: Campylobacter jejuni RM1221
# HLA-B*58:01 [11] = assay: as above; conditions: source organism: Campylobacter jejuni RM1221
# HLA-A*02:02 = assay: IEDB peptide-MHC binding, purified MHC/competitive/radioactivity; filed as Kd, often an IC50 or EC50 that approximates it; ≥ and ≤ were set here for values at or beyond the usual limits of such assays
# HLA-A*02:03 = assay: as above
# HLA-A*02:06 = assay: as above
# HLA-A*03:01 [12] = assay: as above
# HLA-A*11:01 [13] = assay: as above
# HLA-A*31:01 [14] = assay: as above
# HLA-A*33:01 = assay: as above
# HLA-A*68:01 = assay: as above
# HLA-A*68:02 = assay: as above
# HLA-A*02:01 [15] = assay: as above
# HLA-A*01:01 [16] = assay: as above; conditions: source organism: Hepacivirus hominis
# [17] = source organism: SARS coronavirus Tor2
# [18] = source organism: Vaccinia virus WR
# [19] = source organism: Dengue virus 4 Dominica/814669/1981
# [20] = source organism: Dengue virus 2 Jamaica/1409/1983
# [21] = source organism: Mammarenavirus whitewaterense
# [22] = source organism: Hepatitis C virus (isolate H)
# [23] = source organism: Triticum aestivum
# [24] = source organism: Dengue virus 4 Philippines/H241/1956
# [25] = source organism: Hepacivirus hominis
# [26] = source organism: Mammarenavirus tacaribeense
sequence,measurement,setting,value
APVSAMVRM,pKd,HLA-B*07:02 [1]; [17],6.80
same,pKd,HLA-B*35:01; [17],6.36
same,pKd,HLA-B*51:01; [17],5.75
same,pKd,HLA-B*53:01; [17],6.13
same,pKd,HLA-B*54:01; [17],≤ 4.63
DPEKFNARM,pKd,HLA-B*07:02 [1]; [18],≤ 4.18
same,pKd,HLA-B*35:01; [18],6.02
same,pKd,HLA-B*51:01; [18],4.77
same,pKd,HLA-B*53:01; [18],5.89
same,pKd,HLA-B*54:01; [18],≤ 4.11
FGSVGGLFTS,pKd,HLA-B*58:01 [2]; [19],6.66
FITDNVHTW,pKd,HLA-B*53:01; [20],7.05
same,pKd,HLA-B*58:01 [2]; [20],7.76
FPLKLRGTAV,pKd,HLA-B*07:02 [1]; [17],6.87
same,pKd,HLA-B*35:01; [17],5.34
same,pKd,HLA-B*51:01; [17],6.18
same,pKd,HLA-B*53:01; [17],5.35
same,pKd,HLA-B*54:01; [17],8.97
FVVDNVHTW,pKd,HLA-B*53:01; [19],8.07
same,pKd,HLA-B*58:01 [2]; [19],6.97
GPFEASWAI,pKd,HLA-B*07:02 [1]; [21],6.39
same,pKd,HLA-B*35:01; [21],6.10
same,pKd,HLA-B*51:01; [21],6.00
same,pKd,HLA-B*53:01; [21],6.60
same,pKd,HLA-B*54:01; [21],6.51
HPALVFDIT,pKd,HLA-B*08:01 [3]; [22],6.01
same,pKd,HLA-B*35:01; [22],8.25
same,pKd,HLA-B*51:01; [22],5.15
same,pKd,HLA-B*53:01; [22],6.19
same,pKd,HLA-B*54:01; [22],9.55
IPCMDVVL,pKd,HLA-B*07:02 [1]; [23],≤ 4.39
same,pKd,HLA-B*35:01; [23],4.79
same,pKd,HLA-B*51:01; [23],5.89
same,pKd,HLA-B*53:01; [23],≤ 4.39
same,pKd,HLA-B*54:01; [23],≤ 4.06
IPKGIMMNV,pKd,HLA-B*07:02 [1]; [17],6.89
same,pKd,HLA-B*35:01; [17],≤ 4.68
same,pKd,HLA-B*51:01; [17],5.08
same,pKd,HLA-B*53:01; [17],≤ 4.62
same,pKd,HLA-B*54:01; [17],7.83
ISSTPFAEYT,pKd,HLA-B*58:01 [2]; [24],5.69
KNDAVYIGY,pKd,HLA-A*01:01 [4],4.72
same,pKd,HLA-A*02:01 [5],≤ 4.70
same,pKd,HLA-A*03:01 [6],≤ 4.70
same,pKd,HLA-A*11:01 [7],≤ 4.70
same,pKd,HLA-A*24:03,≤ 4.70
same,pKd,HLA-A*26:01,≤ 4.70
same,pKd,HLA-A*31:01 [8],≤ 4.70
same,pKd,HLA-A*69:01,≤ 4.70
same,pKd,HLA-B*07:02 [9],≤ 4.70
same,pKd,HLA-B*08:01 [10],≤ 4.70
same,pKd,HLA-B*15:01,≤ 4.70
same,pKd,HLA-B*27:05,≤ 4.70
same,pKd,HLA-B*40:01,≤ 4.70
same,pKd,HLA-B*44:02,≤ 4.70
same,pKd,HLA-B*58:01 [11],≤ 4.70
KPTESACSSL,pKd,HLA-B*07:02 [1]; [17],7.23
same,pKd,HLA-B*35:01; [17],4.78
same,pKd,HLA-B*51:01; [17],5.37
same,pKd,HLA-B*53:01; [17],5.08
same,pKd,HLA-B*54:01; [17],≤ 4.30
LPYPDPSRIL,pKd,HLA-B*07:02 [1]; [17],5.42
same,pKd,HLA-B*35:01; [17],≤ 4.57
same,pKd,HLA-B*51:01; [17],6.00
same,pKd,HLA-B*53:01; [17],5.08
same,pKd,HLA-B*54:01; [17],5.02
LSIPPTAGI,pKd,HLA-B*58:01 [2]; [24],7.62
MPEKRNVVV,pKd,HLA-B*07:02 [1]; [18],8.74
same,pKd,HLA-B*35:01; [18],6.39
same,pKd,HLA-B*51:01; [18],6.90
same,pKd,HLA-B*53:01; [18],6.40
same,pKd,HLA-B*54:01; [18],7.48
MPYNILDRII,pKd,HLA-B*07:02 [1]; [18],6.58
same,pKd,HLA-B*35:01; [18],5.79
same,pKd,HLA-B*51:01; [18],6.91
same,pKd,HLA-B*53:01; [18],7.34
same,pKd,HLA-B*54:01; [18],8.08
QIFEVYWYL,pKd,HLA-A*02:02; [18],8.95
same,pKd,HLA-A*02:03; [18],6.73
same,pKd,HLA-A*02:06; [18],7.72
same,pKd,HLA-A*03:01 [12]; [18],5.97
same,pKd,HLA-A*11:01 [13]; [18],7.17
same,pKd,HLA-A*31:01 [14]; [18],6.84
same,pKd,HLA-A*33:01; [18],6.11
same,pKd,HLA-A*68:01; [18],6.06
same,pKd,HLA-A*68:02; [18],8.05
same,pKd,HLA-B*07:02 [1]; [18],4.79
same,pKd,HLA-B*35:01; [18],5.19
same,pKd,HLA-B*51:01; [18],5.26
same,pKd,HLA-B*53:01; [18],5.85
same,pKd,HLA-B*54:01; [18],≤ 5.30
QPFPPQQPY,pKd,HLA-B*07:02 [1]; [23],≤ 4.11
same,pKd,HLA-B*35:01; [23],6.52
same,pKd,HLA-B*51:01; [23],≤ 4.11
same,pKd,HLA-B*53:01; [23],≤ 4.11
same,pKd,HLA-B*54:01; [23],≤ 4.11
RLLIWAYLSK,pKd,HLA-A*02:01 [15]; [18],5.30
same,pKd,HLA-A*02:02; [18],≤ 4.37
same,pKd,HLA-A*02:03; [18],4.76
same,pKd,HLA-A*02:06; [18],4.83
same,pKd,HLA-A*03:01 [12]; [18],9.80
same,pKd,HLA-A*11:01 [13]; [18],9.94
same,pKd,HLA-A*31:01 [14]; [18],6.35
same,pKd,HLA-A*33:01; [18],5.31
same,pKd,HLA-A*68:01; [18],5.83
same,pKd,HLA-A*68:02; [18],≤ 4.39
same,pKd,HLA-B*07:02 [1]; [18],≤ 4.16
same,pKd,HLA-B*35:01; [18],≤ 4.16
same,pKd,HLA-B*51:01; [18],≤ 4.47
same,pKd,HLA-B*53:01; [18],4.98
same,pKd,HLA-B*54:01; [18],4.95
RNWAHSSL,pKd,HLA-A*01:01 [16],5.66
same,pKd,HLA-A*02:01 [15]; [25],≤ 4.16
same,pKd,HLA-A*02:02; [25],≤ 4.15
same,pKd,HLA-A*02:03; [25],≤ 4.06
same,pKd,HLA-A*02:06; [25],≤ 4.23
same,pKd,HLA-A*03:01 [12]; [25],≤ 4.06
same,pKd,HLA-A*11:01 [13]; [25],≤ 4.06
same,pKd,HLA-A*31:01 [14]; [25],4.75
same,pKd,HLA-A*33:01; [25],≤ 4.06
same,pKd,HLA-A*68:01; [25],≤ 4.06
same,pKd,HLA-A*68:02; [25],≤ 4.16
same,pKd,HLA-B*07:02 [1]; [25],≤ 4.24
same,pKd,HLA-B*08:01 [3]; [25],≤ 4.17
same,pKd,HLA-B*35:01; [25],≤ 4.06
same,pKd,HLA-B*51:01; [25],≤ 4.29
same,pKd,HLA-B*53:01; [25],≤ 4.31
same,pKd,HLA-B*54:01; [25],≤ 4.06
TPNNLNKIQL,pKd,HLA-B*07:02 [1]; [18],7.19
same,pKd,HLA-B*35:01; [18],5.35
same,pKd,HLA-B*51:01; [18],≤ 4.16
same,pKd,HLA-B*53:01; [18],5.53
same,pKd,HLA-B*54:01; [18],4.87
TVLGLGLSLK,pKd,HLA-A*02:01 [15]; [18],≤ 4.16
same,pKd,HLA-A*02:02; [18],≤ 4.21
same,pKd,HLA-A*02:03; [18],≤ 4.15
same,pKd,HLA-A*02:06; [18],≤ 4.29
same,pKd,HLA-A*03:01 [12]; [18],7.71
same,pKd,HLA-A*11:01 [13]; [18],8.79
same,pKd,HLA-A*31:01 [14]; [18],6.05
same,pKd,HLA-A*33:01; [18],4.84
same,pKd,HLA-A*68:01; [18],7.13
same,pKd,HLA-A*68:02; [18],≤ 4.16
same,pKd,HLA-B*07:02 [1]; [18],≤ 4.16
same,pKd,HLA-B*35:01; [18],≤ 4.62
same,pKd,HLA-B*51:01; [18],≤ 4.21
same,pKd,HLA-B*53:01; [18],≤ 4.16
same,pKd,HLA-B*54:01; [18],≤ 4.16
VPYCNYTRFW,pKd,HLA-B*07:02 [1]; [26],5.45
same,pKd,HLA-B*35:01; [26],5.47
same,pKd,HLA-B*51:01; [26],5.99
same,pKd,HLA-B*53:01; [26],7.80
same,pKd,HLA-B*54:01; [26],≤ 4.65
YPQPQPQY,pKd,HLA-B*07:02 [1]; [23],≤ 4.06
same,pKd,HLA-B*35:01; [23],6.33
same,pKd,HLA-B*51:01; [23],4.71
same,pKd,HLA-B*53:01; [23],5.27
same,pKd,HLA-B*54:01; [23],≤ 4.15
